The data set is described as follows: soluble on expression in E. coli; label from the status in PepcDB or PDB records.
On to “MGHHHHHHSHMSERSVSKRTEQKRWYTVQAPEQFDREVLGKTPAEEPDKVLGRTIETTLGELTNDASENNTKLTFKINEVASDSAYTEFIRHELTRDYLRSLVRRGSSKVEAYITVLTTDDYRVQIQPVAVTTKKADASQEKAIRRTMIDLVRETAEDHTFEQLIDSVVEGRLSSAIYGEAKDIYPLRRVEIKKTTLEARPEEVAAEEETAVDVDEEDVDVEA”, for which the “soluble on expression in E. coli” value was “soluble”.

“MYKVSIICTNYNKAPWISDALDSFLSQVTDFEVEIIVIDDASTDDSREILKSYQKKSSGKIKLLFNETNIGITKTWIKACLYAKGKYIARCDGDDYWTDSFKLQKQVDVLEASKRSRWCNTDFDFVNSQGDLLYANAFSSGHTPLTDTYEKVLALKGMTMASTWLVDADLMRQVNQKINVDTPDDTFDIQLELFQLTQLTYIKDSTTIYRMTTDSDSRPTDTPKMIYRIQKLLDTQLNYLKKYNQVDTKEVSELLLQQDAKQEIRIHELSCFIQELQQTIVDKTKQQETREVELQNVIEEQKNQLSELRQQYHAIINSRQWKYTSKLIAFIRRKK”: the “soluble on expression in E. coli” value is listed as “not soluble”.

Turning to “MGSDKIHHHHHHMKREEIADLMAFVVVAEERSFTRAAARLSMAQSALSQIVRRIEERLGLRLLTRTTRSVVPTEAGEHLLSVLGPMLHDIDSAMASLSDLQNRPSGTIRITTVEHAAKTILLPAMRTFLKSHPEIDIQLTIDYGLTDVVSERFDAGVRLGGEMDKDMIAIRIGPDIPMAIVGSPDYFSRRSVPTSVSQLIDHQAINLYLPTSGTANRWRLIRGGREVRVRMEGQLLLNTIDLIIDAAIDGHGLAYLPYDQVERAIKEKKLIRVLDKFTPDLPGYHLYYPHRRHAGSAFSLFIDRLKYKGAV”, the “soluble on expression in E. coli” value is reported as “not soluble”.

For the sequence “MSLKVALLQIDTVVGDIVGNAARIADAVREAASLGARLCVTPELALCGYPPRDLLLQDDFVPACRKALEALAQQLRDLPPVLVGAPVPNPSPVGNPIHNCAVLLREGKVTVATRKVLLPNYDVFDERRYFESGVGCGVVTIDGWRFGVTICEDVWNDKTFWQEHRHYENDPVADLMAGGADAILNLSASPFTLGKQAVRERMLSRVAFRYRVSVLYANQVGGNDDLVFAGKSIAFDATGTLIARGRSFAEDIVMVDVAQATGTITAEPTSDEEQVWKALVLGTRDYARKCGFDGAVLGLSGGIDSALVAAVAAEALGPDKVLGVLMPSPHSSEGSVTDALALASSLGIATCTIPIGDLMHGFEAALAQAFAGREADVTEENIQSRIRGNLLMALSNKQRRLLLTTGNKSELAVGYCTIYGDMAGGLAVIADLPKTLVYRVAHWLNERDTSHGHEGREARETIPSAILTKEPSAELRPGQRDSDSLPPYDVLDGILERLVELRRSAADIVAEGYDVETVRKVLRLVCNAEFKRRQAPPGLKVTDRAFGTGWRMPVAARVNLGEGHHHHHH”, the “soluble on expression in E. coli” value is on record as “soluble”.

Consider “MSLKLFGTDGVRGKAGEFLDSFLAMRLAMAAGIYFKDKSITNNILVGKDTRRSGYMIENAIVSGLTSIGYNVIQIGPMPTPAIAFLTEDMRCDAGIMISASHNPYYDNGIKFFDAHGNKLSEDIEKKIEEIYFDDKLIQASKVDMEKIGQAKRIDDVIGRYIVSIKNSFPKDLTLKSLRVVLDVAHGAAYKVAPTVFKELGAEVIVMSDKPNGLNINENCGALHPANLAAEVKRLRADVGFAFDGDADRLVVVDEKGEVANGDSLLGVLALYLKEQGKLQSSVVATIMSNGALKEFLNKHGIELDTCNVGDKYVLEKLKANGGNFGGEQSGHIIFSDYAKTGDGLIAALQFSALMLSKKKSASSILGQVKPYPQLLTNLKIAEKKDLDKIKGLKELKKDLENKNINTLFRYSGTENLIRLLLEARDIKLLEKEMKNVVEFFKKALNGEGHHHHHH”, for which the “soluble on expression in E. coli” value is “not soluble”.

As to “MRPVYFLSDFGLEDPYVAVVKAVLAERAPGPAVVDLAHALPPQDLRRAAYALFEALPYLPEGAVVLAVVDPGVGTARRAVAALGRWTYVGPDNGLFTLAWLLDPPRRAFLLEPPRPRPKAALPGWAPGEATFHGRDVFAPAAAHLALGLPPEGLGPEVPVETLARLPLALTEGPEGEVLTFDRFGNAITTLLRAPVGGFVEVGGRRVPVRRTFGEVPEGAPVAYLGSAGLLEVAVNRGSAREALGLKEGMPVRLL”, the “soluble on expression in E. coli” value is “soluble”.

Turning to “MIMKNGIVYFVGAGPGDPGLLTIKGKQALKEADVILYDRLANPKLLEFASPDCQFIYCGKLPNRHFMKQKEINALLVEKALNGLTVVRLKGGDPSVFGRVGEEADALHEHGIRYEMVPGITSGIAAPLYAGIPVTHRDFASSFAMITAHDKSLKGTPNLDWEGLARSVQTLVFYMGVKNLSYICQQLISYGKSPSVPVIVIQWGTWGRQRSVKGTLENIQQKVQEHQITNPAIIVIGDIVNFQTHSWFESKPLIGRHLMVVTHGEDEDPLADKLRDSGADLIEWPKWRTENMPVNEEILRKIGTFEDVFFTSRRAVCEFFRALASQKIDIRQLTAKLSAASEQAKTELEKRGFLVTAIQPDSEKRLVVGSRHAVENMQKHESCSFYITHENVIDDRFTHMIQRTISESPLHMVICPNKLSVQQLINGGEQIGILPEPSASRPPIVCIGDDSAAGIYGFTAVQEQDELLAFIHNQHAEKKLL”, the “soluble on expression in E. coli” value is reported as “not soluble”.

Take “TVVVSEAGASVYSASEFAANEFPNLDVSLRGAVSIARRLQDPLAELVKIEPKAIGVGQYQHDVNQTQLARKLDAVVEDCVNAVGVDLNTASAPLLARVAGMTKTLAQNIVEYRDENGRFESRSELKKVPRLGPKAFEQCAGFMRIANGKNPLDASGVHPEAYPVVEKILQATAQSIQDLMSNAGVVRQLDAKQFI”: the “soluble on expression in E. coli” value is on record as “not soluble”.

On to “VSDFKYGALLNITTLSNKVLSLGYEKPFIDSGQARTRLNGPLAEFFLYKTDGIFKTQEQIDNYVTPDGEPIMISGKRPQLGDVKYIDTDNNGQITADDRQFCGSPWAKMQMSLVLNAEWKDFDFSMMWNGQFGNKIYNVSKWQGRLFSDNSNYLRFKKGEEPYQVNQNSDTPRIIYGDQRNSWDADRFLENGSYFRLKNISIGYNLKKEWLKNLGIDKLRLYATGSNLLTFTGYSGLDPDFINTNIWNSGTDSFSYPNTRSVMFGLDLTF”, for which the “soluble on expression in E. coli” value is given as “not soluble”.

Take “MGNQSTSSKGSDTKKEQITVKHQLDKNGTKVPKNPKKVVVFDFGSLDTLDKLGLDDIVAGLPKQVLPKYLSKFKDDKYADVGSLKEPDFDKVAELDPDLIIISARQSESYKEFSKIAPTIYLGVDTAKYMESFKSDAETIGKIFDKEDKVKDELANIDHSIADVKKTAEKLNKNGLVIMANDGKISAFGPKSRYGLIHDVFGVAPADQNIKASTHGQSVSYEYISKTNPDYLFVIDRGTAIGETSSTKQVVENDYVKNVNAVKNGHVIYLDSATWYLSGGGLESMTQMIKEVKDGLEKLEHHHHHH”: the “soluble on expression in E. coli” value was “soluble”.

Consider “MSLKTVEEQAKNIYQLLEMVYGTSPWTLEQVLIDIRRDQTDYFLLYDHDKLLGFLAIQDLAGEVEMTQIAILPSHQELGLASQLMTHLDSIESDIFLEVRESNHRAQGLYQKFGFKFIGKRPDYYRNPIETALLMKREGKHDREGHHHHHH”, for which the “soluble on expression in E. coli” value is recorded as “soluble”.

Take “MVSNAYQGIGSEYETLLKASGRENEVFKKRVGKDRVMATTVHGWWQETMWQRSSSLFTDGRICSCWRLSPTSSRGLQPTYQRKRDFTTGRYGKNACG”: the “soluble on expression in E. coli” value is recorded as “not soluble”.

As for “MRFKVGIEFDESLELPFNYNKILQGFIYRNIMDKDLARFIHDRGFSYEKRKYKMFTFSRLQGKFSIDSKKKKIIYQSPVELVVSSCYEDFFIDLSLSLLRRDVEIAGHKAYVSKMDIIMEEPKSIQKIRMLSPVTAYSTLDDKRTVYFSPYNHDFKRIIKENLIKKYKAFYKDDSKDNVDFDIELVSDKYAKVISSYDGFIIEGWMGDFVLKGDQEVIKLAYDAGIGGKNSQGFGCFKLI”, the “soluble on expression in E. coli” value is on record as “soluble”.

As for “MSLGSEGTSAKISISAIQVNANNPIEDRLLIQRMRLNLPGGENKDFVISAVIDGHGGWQVAEYVQNNFIRIFQKELSQYMSSLVREGSANESNPISQINETDIIAGLFYSLKKTYYILDEELKSKLEVAYNLGFSKLASVGACTTVSIITEDAILTANSGDCLSVYCNENGIWLPLNEQLSAMNPQEQKRLEEIHKHEKDNLIQCKQILHEKFLMGLYTIPKYRGCYVKGILQPSRAIGDFRLKSMDFNYNWEKDLSTEKLLPTFSYVLKDKESEQSKKEQHRENEDLNEDEFPYSYDLINGNNSINMRRDSYRYFVKNPLSFPYVRSEPMLHLFFYNSLNKNLSSTDNTSVEKISPNEYSEGHHHHHH”, the “soluble on expression in E. coli” value is “soluble”.

With “DKREYFVYLPPTYGKGDNHYSVIYMQDGDIVIKILNELMDLIENKSKKDVYDESIIVGVKPIVRNDDYTPWEAEAISKGSSEFGGRGDIYLNFLIKKLKPYIDNKYRTKKEKN”, the “soluble on expression in E. coli” value is “not soluble”.

As for “SKLVWSPETASKAYIDTVKSCENLETPDAAELIAAMAAGWNVKLIVETWSEGDAIASSIGLNVASKHANAKHICIVQNSRSESAYLQAIQESSSPLNFPETIVAEEPGKAMKKLQGVDFLVVDWRNKEFAAAALKNAAFGNRGAVVVCRNGYSSLRRVLRDRKVVRTVTLPVTGGIEIAHVAARNSGKSGNNKRRWITHVDQRSGEEHVFSI”, the “soluble on expression in E. coli” value is reported as “soluble”.

As for “TKDWNLDLTLNMSHNKNKVTKLVEEGRAQSAMDVVVQGSYADQVLAVGYPMGAFHGYEYAGIIQDQARIDELNAYAKSKGQSYYDGNSLKPGHLEIKDLNGDGIINYNDRVIIGNPDPDLFGGLTANLSYKQFSLFANFGYQIGGLKIYNKTLQNLPGQLTGLIDYGLNDRWSDTNKNAKYPALYIGDGVPRLTDHELFNASFFRLQEVRLTYNLPLNKVIKGQLFVSATNLFTLTSYPGTDPATVNSNSNYGGNYETSTYPGFRSFSAGLKINL”, the “soluble on expression in E. coli” value is “not soluble”.

“MSDLVSYHLDDGVATLTLNNGKVNAISPDVIIAFNAALDQAEKDRAIVIVTGQPGILSGGYDLKVMTSSAEAAINLVAQGSTLARRMLSHPFPIIVACPGHAVAKGAFLLLSADYRIGVAGPFSIGLNEVQIGMTMHHAGIELARDRLRKSAFNRSVINAEMFDPEGAMAAGFLDKVVSVEELQGAALAVAAQLKKI”: the “soluble on expression in E. coli” value is on record as “not soluble”.

For “SLKSGCSARQVCAGNTHFAVVTVEKELYTWVNMQGGTKLHGQLGHGDKASYRQPKHVEKLQGKAIHQVSCGDDFTVCVTDEGQLYAFGSDYYGCMGVDKVAGPEVLEPMQLNFFLSNPVEQVSCGDNHVVVLTRNKEVYSWGCGEYGRLGLDSEEDYYTPQKVDVPKALIIVAVQCGCDGTFLLTQSGKVLACGLNEFNKLGLNQCMSGIINHEAYHEVPYTTSFTLAKQLSFYKIRTIAPGKTHTAAIDERGRLLTFGCNKCGQLGVGNYKKRLGINLLGGPLGGKQVIRVSCGDEFTIAATDDNHIFAWGNGGNGRLAMTPTERPHGSDICTSWPRPIFGSLHHVPDLSCRGWHTILIVEKVLNSKTIRSNSSGLSIGTVFQSSS”, the “soluble on expression in E. coli” value is “soluble”.

Take “MGSDKIHHHHHHMTPQPLADNLSPPDPARLAQSIKDWGRELGFQQVGISDVELGEHEAHLQRWLEAGYHGEMDYMAAHGSKRSRPAELVPGTLRVISLRMDYLPGDTRMAQVLATPEKAYVSRYALGRDYHKLIRKRLQQLAERIQAEVGPFGFRAFVDSAPVLEKAIAEQAGLGWIGKNTLVLNRKAGSYFFLGELFVDMPLPVDPAMDSEHCGRCSACLDICPTAAFVGPYRLDARRCISYLTIEYKGAIPLELRPLIGNRVFGCDDCQIVCPWNRFARPTGQGDFQPRHSLDNAELAELFLWSEEEFLGRTEGSPLRRAGYERWLRNLAVGLGNAPSTIPVLEALKARRGFPSELVREHVEWALRRHGET”: the “soluble on expression in E. coli” value is “not soluble”.

On to “MTAHPQEDHYKYKKVISIGVVSELTGLSQRQIRYYEERKLVFPDRSRGIRKYSFADVEQLMKIANQREEGVSTWEIRQEMTKELRERMLKGQMNAHFRRRS”, for which the “soluble on expression in E. coli” value is “not soluble”.

Consider “TEQTNVLVLCAGGGTSGLLANALNKAAEEYHVPVKAAAGGYGAHMDIMKEYQLIILAPQVASNYEDIKQDTDRLGIKLAKTQGAEYIKLTRDGQAALDFVQQQFEN”, for which the “soluble on expression in E. coli” value is listed as “not soluble”.

The values above are taken from the DeepSol protein solubility set.
